Changes are numbered by the printed parent chain.

Assay [1] has as its target T1, human WISE L110A (human, UniProt Q6X4U4 24-206).
T1 construct: Alanine mutant of loop 2, used as supernatant of transiently transfected mammalian cells
T1 chain: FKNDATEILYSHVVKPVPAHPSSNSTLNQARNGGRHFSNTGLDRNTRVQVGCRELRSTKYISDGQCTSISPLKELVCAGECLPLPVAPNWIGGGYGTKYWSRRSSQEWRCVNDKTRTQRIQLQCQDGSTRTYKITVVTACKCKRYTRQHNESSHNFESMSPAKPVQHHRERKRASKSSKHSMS
The assay is described as follows: capture ELISA, WISE mutant supernatant (FIG. 27). As to the method:
(§1) Relative capture of individual WISE mutant proteins or wild type proteins by either neutralizing antibodies or non-neutralizing antibodies was compared to assess whether any of these single amino acid changes affects the binding of an antibody to WISE protein. The bound WISE proteins were then detected using HRP-conjugated affinity-purified polyclonal antibody against WISE.
(§2) Purified anti-WISE antibodies (0.5 ug/ml) were added onto high-binding ELISA plates pre-coated with 1 ug/ml of goat anti-mouse IgG Fc (Pierce). Plates were incubated for 1 hour in room temperature. Plates were then washed 4× with Wash Buffer. Subsequently alanine scanned WISE loop-2 mutant supernatants from transient transfection cultures (100× diluted) were added and incubated for 1 hour in room temperature. After 4× wash, rabbit anti-WISE Pab-biotin (50 ng/ml)+NeutrAvidin-HRP (Pierce, Cat #31001) were added onto the plates and incubated for 1 hour in room temperature. Plates were again washed 4× with Wash Buffer. Binding was analyzed using 1-Step Ultra TMB-ELISA substrate (Pierce; Cat #34028) according to the manufacturer's instructions.
In general terms: In an ELISA, binding on a coated surface is turned into a signal by an enzyme label.

Assay [2] deals with T2, human WISE G117A (human, UniProt Q6X4U4 24-206).
T2 construct: Alanine mutant of loop 2, used as supernatant of transiently transfected mammalian cells
T2 chain: T1 chain with A87L, G94A
Description: capture ELISA, WISE mutant supernatant (FIG. 27). As to the method: as §1, §2

Assay [3] addresses T3, human WISE N112A (human, UniProt Q6X4U4 24-206).
T3 construct: Alanine mutant of loop 2, used as supernatant of transiently transfected mammalian cells
T3 chain: T1 chain with A87L, N89A
The assay is described as follows: capture ELISA, WISE mutant supernatant (FIG. 27). As to the method:
as §1, §2

The target of assay [4] is T1, human WISE L110A. The assay is described as follows: capture ELISA, WISE mutant supernatant (FIG. 28). As to the method:
as §1, §2

The target of assay [5] is T2, human WISE G117A. Description: capture ELISA, WISE mutant supernatant (FIG. 28). As to the method:
as §1, §2

The target of assay [6] is T3, human WISE N112A. Description: capture ELISA, WISE mutant supernatant (FIG. 28). As to the method: as §1, §2
Assay [7] addresses T4, human WISE (human, UniProt Q6X4U4 24-206).
T4 construct: Recombinant protein secreted from mammalian cells; also called hWISE; huWISE
T4 sequence: T1 chain with A87L
The assay is described as follows: capture ELISA binding profile (FIG. 28). As to the method:
as §1, §2

Assay [8] deals with T4, human WISE. The assay is described as follows: capture ELISA binding profile (FIG. 22). As to the method: as §1, §2
For another assay, the target named is T5, human WISE K121A (human, UniProt Q6X4U4 24-206).
T5 construct: Alanine mutant of loop 2, used as supernatant of transiently transfected mammalian cells
T5 chain: T1 chain with A87L, K98A
Description: capture ELISA, WISE mutant supernatant (FIG. 22). As to the method:
as §1, §2

A further assay deals with T6, human WISE I114A (human, UniProt Q6X4U4 24-206).
T6 construct: Alanine mutant of loop 2, used as supernatant of transiently transfected mammalian cells
T6 chain: T1 chain with A87L, I91A
Description: capture ELISA, WISE mutant supernatant (FIG. 22). As to the method:
as §1, §2

B1: Ab-AJ (antibody, V domains shown)
VH: EVQLQQSGAELVRSGASVKLSCTASGFNIKDYYMHWVKQRPEQGLEWIGWIDPENGDTEYAPKFQGKATMTADTSSNTAYLQLSSLTSEDTAVYYCNFYDVYSEGALDYWGQGTSVTVSS
VL: DIVMSQSPSSLAVSAGEKVTMSCKSSQSLLNSRTRKNYLAWYQQKPGQSPKLLIYWASTRESGVPDRFTGSGSGTDFTLTISSVQAEDLAVYYCKQSYNLPTFGGGTKLEIK
notes: Murine anti-WISE monoclonal antibody; also called WISE Loop 2 Mab (Ab-AJ)
As for B1, the absorbance with human WISE L110A [1], with human WISE G117A [2] and with human WISE N112A [3] was at most 1.5 absorbance each time.

B2: Ab-AF (antibody, V domains shown)
VH: QIQLVQSGPELKKPGETVKISCKASGYTFTDYSMHWVKQAPGKGLKWMGWINTETGEPTYADDFKGRFAFSLETSASTACLEINNLKNEDTATYFCSLTGYWGQGTSVTVSS
VL: DIQMTQSPASLSASVGETVTITCGASENIYGALNWYQRKQGKSPQVLIYGATNLADGMSSRFSGSGSGRQYSLKISSLHPDDVAMYYCQNVFSSPLTFGAGTKLELK
notes: Murine monoclonal antibody purified from hybridoma; also called WISE Loop 2 Mab (Ab-AF)
For the molecule B2, the binding result in the assay with human WISE L110A [4], with human WISE G117A [5], with human WISE N112A [6] and with human WISE [7] was “binds” each time.

B3: Ab-AG (antibody, V domains shown)
VH: B2 VH with D62A, C80Y, E82Q, S97T
VL: B2 VL with V46L, Y49F, K74E, M85T, V91L, S93N, E105D
notes: Murine anti-WISE monoclonal antibody; also called WISE Loop 2 Mab (Ab-AG)
For B3, the binding result in the assay with human WISE [8], with human WISE K121A and with human WISE I114A was “binds” each time.

These data come from patent US20120288507A1 (Amgen, published 2012).
